Measurements as given in publication PMC2777315 (PLoS Pathogens, 2009).

T1: GST-IlsA fusion protein (IlsA, iron-regulated leucine-rich surface protein of Bacillus cereus ATCC 14579) (Bacillus cereus ATCC 14579, UniProt Q81G77 1-760)
T1 construct: also called IlsA-GST; purified IlsA; source: E. coli BL-21, purified (pellet solubilised in 8 M urea, dialysed, glutathione Sepharose 4B)
T1 sequence: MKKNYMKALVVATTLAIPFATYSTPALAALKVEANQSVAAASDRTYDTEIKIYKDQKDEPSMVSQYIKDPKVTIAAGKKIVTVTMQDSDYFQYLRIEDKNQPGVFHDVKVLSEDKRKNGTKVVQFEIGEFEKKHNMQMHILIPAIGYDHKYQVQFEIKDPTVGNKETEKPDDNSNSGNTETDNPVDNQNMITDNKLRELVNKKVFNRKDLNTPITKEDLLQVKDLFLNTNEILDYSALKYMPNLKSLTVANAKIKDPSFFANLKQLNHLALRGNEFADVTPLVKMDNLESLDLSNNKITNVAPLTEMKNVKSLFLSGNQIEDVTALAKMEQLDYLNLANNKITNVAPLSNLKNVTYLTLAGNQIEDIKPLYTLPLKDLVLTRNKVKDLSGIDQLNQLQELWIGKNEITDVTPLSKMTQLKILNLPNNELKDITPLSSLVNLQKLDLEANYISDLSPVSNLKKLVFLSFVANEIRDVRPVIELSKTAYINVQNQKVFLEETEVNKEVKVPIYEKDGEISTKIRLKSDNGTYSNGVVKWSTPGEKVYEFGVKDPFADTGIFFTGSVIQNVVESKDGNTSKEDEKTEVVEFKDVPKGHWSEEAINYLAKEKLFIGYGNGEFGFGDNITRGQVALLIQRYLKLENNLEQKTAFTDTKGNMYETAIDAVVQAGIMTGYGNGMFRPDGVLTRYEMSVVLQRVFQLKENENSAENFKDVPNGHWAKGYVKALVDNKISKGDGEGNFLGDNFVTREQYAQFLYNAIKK


Columns and labels:
Settings in all cases: both partners purified
[1] = target: T1, GST-IlsA fusion protein (IlsA, …); assay: SPR
[2] = target: T1, GST-IlsA fusion protein (IlsA, …); assay: ELISA
[3] = target: T1, GST-IlsA fusion protein (IlsA, …); assay: ELISA; hemoglobin or ferritin coated on plates in increasing amounts (0-180 nM), 0.1 M phosphate buffer pH 7.4; IlsA added at 30 nM, 2 h at 37°C; detected with polyclonal anti-IlsA; Kd estimated with Origin
[4] = target: T1, GST-IlsA fusion protein (IlsA, …); assay: SPR; BIAcore 3000; GST-IlsA captured by anti-GST antibody on a CM5 chip; ligands injected at 200 nM for 8 min, dissociation 10 min; 0.1 M phosphate buffer pH 7.4; 20°C; data did not fit a 1:1 model, indicative koff from the dissociation phase only

Binder | koff [1] [s⁻¹] | Kd [2] [nM] | Kd [3] [nM] | koff [4] [s⁻¹]
ferritin (complex, source: bought: Sigma-Aldrich) chain 1: MSSQIRQNYSTEVEAAVNRLVNLYLRASYTYLSLGFYFDRDDVALEGVCHFFRELAEEKREGAERLLKMQNQRGGRALFQDLQKPSQDEWGTTLDAMKAAIVLEKSLNQALLDLHALGSAQADPHLCDFLESHFLDEEVKLIKKMGDHLTNIQRLVGSQAGLGEYLFERLTLKHD chain 2: MTTAFPSQVRQNYHQDSEAAINRQINLELHASYVYLSMSFYFDRDDVALKNFAKYFLHQSHEEREHAEKLMKLQNQRGGRIFLQDIKKPDQDDWENGLKAMECALHLEKNVNESLLELHKLATDKNDPHLCDFLETHYLNEQVKAIKELGDHVTNLRRMGAPESGMAEYLFDKHTLGECDES | 0.00171 | 10 ± 3 |  | 
hemoglobin (complex) chain 1: not shown chain 2: not shown |  |  | 3 ± 1 | 0.00148
